Measurements: paper PMC6279242 (Cell host & microbe, 2018)

Biological target: T1, GST-SIK1ΔN (Arabidopsis thaliana, UniProt O24527 249-836)
T1 sequence (looked up): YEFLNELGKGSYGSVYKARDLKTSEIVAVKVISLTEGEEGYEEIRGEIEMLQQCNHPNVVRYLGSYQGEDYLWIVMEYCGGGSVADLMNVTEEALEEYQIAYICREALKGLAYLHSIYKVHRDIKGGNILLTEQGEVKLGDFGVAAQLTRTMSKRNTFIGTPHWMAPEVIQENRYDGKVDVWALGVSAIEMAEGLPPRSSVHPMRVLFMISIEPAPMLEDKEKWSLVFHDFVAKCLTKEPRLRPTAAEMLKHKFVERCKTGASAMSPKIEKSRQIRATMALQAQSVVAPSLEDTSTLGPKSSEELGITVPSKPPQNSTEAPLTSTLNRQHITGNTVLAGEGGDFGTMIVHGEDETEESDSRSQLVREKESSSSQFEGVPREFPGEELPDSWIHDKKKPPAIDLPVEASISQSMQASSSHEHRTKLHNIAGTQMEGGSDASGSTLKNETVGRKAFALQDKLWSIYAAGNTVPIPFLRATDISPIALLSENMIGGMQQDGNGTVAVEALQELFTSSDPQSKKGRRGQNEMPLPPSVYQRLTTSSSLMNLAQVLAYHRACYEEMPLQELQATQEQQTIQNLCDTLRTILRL
Experiment: pull-down

- binding result: binds
B1: MBP-BIK1 (enzyme, Arabidopsis thaliana, UniProt O48814 1-395, looked up)
chain: MGSCFSSRVKADIFHNGKSSDLYGLSLSSRKSSSTVAAAQKTEGEILSSTPVKSFTFNELKLATRNFRPDSVIGEGGFGCVFKGWLDESTLTPTKPGTGLVIAVKKLNQEGFQGHREWLTEINYLGQLSHPNLVKLIGYCLEDEHRLLVYEFMQKGSLENHLFRRGAYFKPLPWFLRVNVALDAAKGLAFLHSDPVKVIYRDIKASNILLDADYNAKLSDFGLARDGPMGDLSYVSTRVMGTYGYAAPEYMSSGHLNARSDVYSFGVLLLEILSGKRALDHNRPAKEENLVDWARPYLTSKRKVLLIVDNRLDTQYLPEEAVRMASVAVQCLSFEPKSRPTMDQVVRALQQLQDNLGKPSQTNPVKDTKKLGFKTGTTKSSEKRFTQKPFGRHLV
